Assay results as given in paper PMC10526137, “Development of a High-Accuracy, Low-Cost, and Portable Fluorometer with Smartphone Application for the Detection of Urinary Albumin towards the Early Screening of Chronic Kidney and Renal Diseases”.

Biological target: human serum albumin (HSA) (Homo sapiens, UniProt P02768 25-609)
Assay: graphene oxide fluorescence recovery (aptamer release from GO); GO-aptamer complex, PBS pH 7.4, HSA 0.001-1.5 mg/mL; LOD 0.203 ug/mL, no Kd; PBS pH 7.4, room temperature; 15 uL of 5 uM Cy5-H8 + 85 uL GO-PBS (15 uL of 5 mg/mL GO in 70 uL PBS) 5 min in the dark, then 100 uL HSA for 30 min; also artificial urine
Conditions: protein: commercial; label: 5'-Cy5

Chain of human serum albumin (HSA) (P02768 25-609): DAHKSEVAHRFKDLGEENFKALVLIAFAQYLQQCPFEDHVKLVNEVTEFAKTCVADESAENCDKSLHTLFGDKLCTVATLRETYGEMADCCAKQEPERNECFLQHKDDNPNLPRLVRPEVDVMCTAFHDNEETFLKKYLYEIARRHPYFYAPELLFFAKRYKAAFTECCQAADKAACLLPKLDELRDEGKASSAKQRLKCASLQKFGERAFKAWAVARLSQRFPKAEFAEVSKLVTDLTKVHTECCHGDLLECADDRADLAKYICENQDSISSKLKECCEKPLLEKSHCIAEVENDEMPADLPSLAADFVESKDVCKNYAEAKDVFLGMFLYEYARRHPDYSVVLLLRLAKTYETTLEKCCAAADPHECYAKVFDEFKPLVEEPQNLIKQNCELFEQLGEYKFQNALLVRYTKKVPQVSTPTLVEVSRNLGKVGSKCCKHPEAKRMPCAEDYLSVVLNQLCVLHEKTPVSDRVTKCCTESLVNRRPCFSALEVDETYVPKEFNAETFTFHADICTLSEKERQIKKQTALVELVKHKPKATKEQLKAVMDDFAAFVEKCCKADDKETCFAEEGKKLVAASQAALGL

B1: H8 albumin aptamer (ssDNA)
DNA: ATACCAGCTTATTCAATTCCCCCGGCTTTGGTTTAGAGGTAGTTGCTCATTACTTGTACGCTCCGGATGAGATAGTAAGTGCAATCT
  binding result: binds
